System: MS2 coat protein
Test: apparent KD of MS2 coat protein; designed switch direction (-1 OFF switch, 1 ON switch): -1; higher = weaker reporter binding
Method in brief: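 SNAP-549-labelled MS2 coat protein was titrated, doubling from 0.7 or 1.5 nM to 3 µM, over designed RNA switches transcribed on Illumina chips by stalled E. coli RNA polymerase. Runs were done without input, with 200 uM small-molecule ligand, or with an oligonucleotide input. Apparent KD is the per-design median over clusters of curve-fitted normalised fluorescence.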

[1] = input ligand: microRNA oligo, concentration not stated
[2] = Eterna round: R95, input ligand: FMN 200 uM
[3] = Eterna round: R95, input ligand: microRNA oligo, concentration not stated
[4] = Eterna round: R95, input ligand: none

UUUUUUGGGCAAGGAUAUCCUGUGCGGUUCCGGCUCGUGUCUGUUACAUGAGGAUCACCCAUGUGGGAGAAGGUGCCUGUGGUU [Design 86] (Eterna round: R96, puzzle: Exclusion NG 2)
apparent KD of MS2 coat protein (input ligand: FMN 200 uM): 183 nM | apparent KD of MS2 coat protein [1]: 37.3 nM | apparent KD of MS2 coat protein (input ligand: none): 43 nM

ACUUACUGAGGAUAUACAUAGAUUUACAUGAGGAUCACCCAUGUUCCUCUAUGUAUAUAUGUAGAAGGCAGAAGUG [Mat - Exclusion 5 - JL Mod - D36] (Eterna round: R97, puzzle: Exclusion 5)
apparent KD of MS2 coat protein (input ligand: FMN 200 uM): 137 nM | apparent KD of MS2 coat protein (input ligand: none): 33.3 nM

ACGCGACAUGAGGAUCACCCAUGUGAGGAUAUGGCCUGUUUGGCGUGUGCUGGCUCUGUCAGAAGGCGCGUGGG [salish99_ex1_r4_040] (Eterna round: R97, puzzle: Exclusion 1)
apparent KD of MS2 coat protein (input ligand: FMN 200 uM): 141 nM | apparent KD of MS2 coat protein (input ligand: none): 90.4 nM

UUUUUCAGGCCAGAUCCUCACAUGAGGAUCACCCAUGUGCUCGUCUGUUUUCGCACUAUCUUUUUUUUGAUAGUGCU [Level Boss var2-13] (puzzle: Sensor v3, turn-off variant 1)
apparent KD of MS2 coat protein [2]: 291 nM | apparent KD of MS2 coat protein [3]: 26.8 nM | apparent KD of MS2 coat protein [4]: 309 nM

GCCUCACUUGAGGAUCACCCAAGUCAGGAUAUAUCACUAGCGUGGAAACCACGCUGGCAUAGAAGGGACAAAGA [Ergeeddi] (Eterna round: R97, puzzle: Exclusion 1)
apparent KD of MS2 coat protein (input ligand: FMN 200 uM): 27.1 nM | apparent KD of MS2 coat protein (input ligand: none): 17.3 nM

AACCCGUGUGUCAGGAUAUUGAGUCAGACUGGCUACAAGAAGGGACAUGAGGAUCACCCAUGUACUUAGAGAAA [BmEX4 B.22] (Eterna round: R97, puzzle: Brourd's mod of Exclusion 4)
apparent KD of MS2 coat protein (input ligand: FMN 200 uM): 37.8 nM | apparent KD of MS2 coat protein (input ligand: none): 17.9 nM

CUGCUCCGUGUAGGAUAUCCCGGCAACCAAUCGGGAGAAGGACAUGAGGAUCACCCAUGUAUGUUAUUAUCACGUGAAGCGUCC [Design 27] (Eterna round: R96, puzzle: Exclusion NG 1)
apparent KD of MS2 coat protein [1]: 16.3 nM

CAGUACUGAGGAUAUACAUGAGGAUCACCCAUGUGUGUGAGAAAAGGAAGAAAAGAAUGUAGAAGGCGGUGCUG [JR_Ex3_Sub040] (Eterna round: R97, puzzle: Exclusion 3)
apparent KD of MS2 coat protein (input ligand: FMN 200 uM): 240 nM | apparent KD of MS2 coat protein (input ligand: none): 486 nM

ACGCAGAGAGGAUAUACAUGAGGAUCACCCAUGUAUAAACGCACUAACUCUCCUCACUGUAGAAGGCUCAUGCA [Larerige] (puzzle: Exclusion 3)
apparent KD of MS2 coat protein [3]: 11.3 nM

AAAACGGGAGGAUAUCGUAUCGUACACAUGAGGAUCACCCAUGUCCGGUGCAUCCUCAUCCGAGAAGGCCCAUAAA [Inisrarier] (puzzle: Exclusion 5)
apparent KD of MS2 coat protein [2]: 25.8 nM | apparent KD of MS2 coat protein [3]: 31.4 nM | apparent KD of MS2 coat protein [4]: 25.9 nM

AAUAAACGAGGAUAUACUAAAAUAUGAAUAAAAUAAAUAAAACAUGAGGAUCACCCAUGUAGAAGGCGUAAUAA [JMF's Not so obvious solution 4] (puzzle: Exclusion 2)
apparent KD of MS2 coat protein [2]: 21.3 nM | apparent KD of MS2 coat protein [3]: 23.4 nM | apparent KD of MS2 coat protein [4]: 21.4 nM

GUUCCACAUGAGGAUCACCCAUGUGAGGAUAUGGUUUCGCUGGCCGUAGCCAGUGGAACCAGAAGGCGCGUGAU [Mat - Exclusion 1 - JL Mod - D19] (Eterna round: R97, puzzle: Exclusion 1)
apparent KD of MS2 coat protein (input ligand: FMN 200 uM): 80.8 nM | apparent KD of MS2 coat protein (input ligand: none): 67.3 nM

AAGUAUAGAGGAUAUAGUGAGUACUACAUGAGGAUCACCCAUGUUCUUCAAAACGUAUUUCUAGAAGGCUGAUAAA [EX-5 Malc#21] (puzzle: Exclusion 5)
apparent KD of MS2 coat protein [2]: 110 nM | apparent KD of MS2 coat protein [3]: 47.8 nM | apparent KD of MS2 coat protein [4]: 59.1 nM

UGAUUGUUUACCAGGUUAUACAUGAGGAUCACCCAUGUAGAUCCUACGUGCACGUUAUACCGCUCGUCUUAUUCCCA [Sensor-V1 #76] (Eterna round: R97, puzzle: Sensor, turn-off variant 1)
apparent KD of MS2 coat protein (input ligand: FMN 200 uM): 21.4 nM | apparent KD of MS2 coat protein (input ligand: none): 20.7 nM

GGUGGACAUGAGGAUCACCCAUGUGAGGAUAUCGGCUGGCUAGCGGCGGAUGGCUUCUCGAGAAGGCGCAUUGU [Exclusion 1 V82] (puzzle: Exclusion 1)
apparent KD of MS2 coat protein [3]: 67.7 nM

CAGUACAGAGGAUAUACAUGAGGAUCACCCAUGUGUUUCAGCUAGGAGACUAGCGAAAGUAGAAGGCUGUACUA [salish99_ex3_r4_003] (Eterna round: R97, puzzle: Exclusion 3)
apparent KD of MS2 coat protein (input ligand: FMN 200 uM): 25.7 nM | apparent KD of MS2 coat protein (input ligand: none): 9.41 nM

ACUAGAUGAGGAUAUGCAUAUUUUCGUGUUCUUCUAGAUUAACAUGAGGAUCACCCAUGUAGAAGGCGUCUGGU [Exclusion 2 - 19] (puzzle: Exclusion 2)
apparent KD of MS2 coat protein [3]: 29.7 nM

UCAAGUAUGUAGGAUAUCGAUGUCGAAAGACAUCGAGAAGGACGUACAUGAGGAUCACCCAUGUAACUUGCAUG [Exclusion 6 - B - 10:f] (Eterna round: R96, puzzle: Exclusion 6)
apparent KD of MS2 coat protein (input ligand: FMN 200 uM): 159 nM | apparent KD of MS2 coat protein [1]: 112 nM | apparent KD of MS2 coat protein (input ligand: none): 220 nM

UACCGGCGGACCGAGGCUUUUUGCUCGUCUUAUGCUACGACAUGAGGAUCACCCAUGUGGUGGUGGUCCGUUGUAGU [JL ViennaUCT Bitein mod 7] (puzzle: Sensor v3, turn-off variant 2)
apparent KD of MS2 coat protein [2]: 106 nM | apparent KD of MS2 coat protein [3]: 13.3 nM | apparent KD of MS2 coat protein [4]: 122 nM

GCCUAACAUGAGGAUCACCCAUGUAAGGAUAUGAUUAGUCGUUUGUAAGCAGCGCGACUCAGAAGGUACUUGGG [Eternabot (L1) Solution 34] (Eterna round: R97, puzzle: Exclusion 1)
apparent KD of MS2 coat protein (input ligand: FMN 200 uM): 72 nM | apparent KD of MS2 coat protein (input ligand: none): 25.4 nM

GAGCCGCGAGGAUAUACAGACGAGUCCAUUACGUGUCUCGGACUUGAGGAUCACCCAAGUAGAAGGCGUCUCAG [salish99_ex2_r4_629] (Eterna round: R97, puzzle: Exclusion 2)
apparent KD of MS2 coat protein (input ligand: FMN 200 uM): 34.3 nM | apparent KD of MS2 coat protein (input ligand: none): 34.2 nM

AAAAGGCAGGGAGGAUAUGCUUACCUGGGUCGUCUUCGAACAUGAGGAUCACCCAUGUAGUCGACGCAGAAGGCCCUCAAAGCC [Mat - Exclusion NG 2 - Mod of JL - D59] (Eterna round: R96, puzzle: Exclusion NG 2)
apparent KD of MS2 coat protein (input ligand: FMN 200 uM): 42.7 nM | apparent KD of MS2 coat protein [1]: 25.6 nM | apparent KD of MS2 coat protein (input ligand: none): 21.7 nM

ACAUGGAAGCAGGAUAUGCUUGUUUAAUUGUUUGCAGAAGGGCUAACAUGAGGAUCACCCAUGUAAGAGGUCUA [JR_E6_Sub062] (puzzle: Exclusion 6)
apparent KD of MS2 coat protein [3]: 16.8 nM

GUGAAGUAAGGAUAUACAUGAGGAUCACCCAUGUAAGGGAAGGUGAUGGGAGUAGAUAGUAGAAGGUACGAGGA [JR_Exclu3_Sub066] (puzzle: Exclusion 3)
apparent KD of MS2 coat protein [3]: 103 nM

GUUUCACAUGAGGAUCACCCAUGUGAGGAUAUGGAUUCGAUAGAAGUAGAAGAUGGAUCCAGAAGGCGCGUGAC [JR_Ex1_Sub078] (Eterna round: R97, puzzle: Exclusion 1)
apparent KD of MS2 coat protein (input ligand: FMN 200 uM): 35.3 nM | apparent KD of MS2 coat protein (input ligand: none): 36.4 nM

UGUUAUAGAGGAUAUGCGUGAAUAUAGAUUCAUGGAAAUUUACAUGAGGAUCACCCAUGUAGAAGGCUGUGUUU [LRO-Excl2-17-mod 090 by JR] (Eterna round: R97, puzzle: Exclusion 2)
apparent KD of MS2 coat protein (input ligand: FMN 200 uM): 14.6 nM | apparent KD of MS2 coat protein (input ligand: none): 15.6 nM

UUUGAAUAAGUGAGGAUAUACUGUUAGUAUUGAUUGUAGAAGGUACAUGAGGAUCACCCAUGUUUAGUAUUUAU [JR_BME4_Sub038] (puzzle: Brourd's mod of Exclusion 4)
apparent KD of MS2 coat protein [3]: 15.6 nM

CCGAGUCGAGUGAGGAUAUAGCUAAGACCGCUUAGCUAGAAGGCACAUGAGGAUCACCCAUGUCUUAGGAGAAG [Eternabot (L1) Solution 80] (Eterna round: R97, puzzle: Brourd's mod of Exclusion 4)
apparent KD of MS2 coat protein (input ligand: FMN 200 uM): 22.4 nM | apparent KD of MS2 coat protein (input ligand: none): 22.2 nM

GCGCCAUCGUGAGAUGGCGUAACUACAUGAGGAUCACCCAUGUAGGAUAUCGAUUGCUUUGCAGUCGAGAAGGGCAAGGGAUAU [JL ENG3 3.87] (Eterna round: R96, puzzle: Exclusion NG 3)
apparent KD of MS2 coat protein (input ligand: FMN 200 uM): 15.3 nM | apparent KD of MS2 coat protein [1]: 13.5 nM | apparent KD of MS2 coat protein (input ligand: none): 16.9 nM

AGCGAAUAGGUAGGAUAUGAGAAUAGAUAGAGCUCAGAAGGACCACAUGAGGAUCACCCAUGUAAAGUCUUGAGGCUGCGUGGU [Prohibition 15 - Jieux - Exclusion NG 1] (Eterna round: R96, puzzle: Exclusion NG 1)
apparent KD of MS2 coat protein (input ligand: FMN 200 uM): 51 nM | apparent KD of MS2 coat protein [1]: 14.4 nM | apparent KD of MS2 coat protein (input ligand: none): 17.5 nM

GGUCAGACGGUAGGAUAUCCAUAUCGAGUGACCUUUUCAUAACAUGAGGAUCACCCAUGUCGGUGGGAGAAGGGCCGUACGGCG [salish99_ExNG02_R04_004] (Eterna round: R96, puzzle: Exclusion NG 2)
apparent KD of MS2 coat protein (input ligand: FMN 200 uM): 114 nM | apparent KD of MS2 coat protein [1]: 78.2 nM | apparent KD of MS2 coat protein (input ligand: none): 93.2 nM

UAAGUUUAGGUAGGAUAUACUUUUAAUUUCUCUUUCCUUACAUGAGGAUCACCCAUGUUUACAUUGUAGAAGGACCACUAUGUU [JR_ExcNG2_Sub053] (Eterna round: R96, puzzle: Exclusion NG 2)
apparent KD of MS2 coat protein (input ligand: FMN 200 uM): 17.8 nM | apparent KD of MS2 coat protein [1]: 18.3 nM | apparent KD of MS2 coat protein (input ligand: none): 26.4 nM

AUAACAAGCUUUUUGUUCGUAGAACAUGAUGCUCGAGUCACAUGAGGAUCACCCAUGUCAUCCAGAUUGAUAGUUGA [JR_SV3TOV2_Sub060] (puzzle: Sensor v3, turn-off variant 2)
apparent KD of MS2 coat protein [2]: 39.5 nM | apparent KD of MS2 coat protein [3]: 51.2 nM | apparent KD of MS2 coat protein [4]: 40.3 nM

GUUAAGUGAGGAUAUGGUGAGUAGUGCCUGAGCGCUGCUCACCAGAAGGCACAUGAGGAUCACCCAUGUAUAAC [Mat - Exclusion 4 - Mod of JL - D16] (puzzle: Exclusion 4)
apparent KD of MS2 coat protein [3]: 19.9 nM

Source: the supplement of paper PMC9170038
